Ends that are not written are not given here.
Assays:
[1] = biological target: T1, FX activation peptide 12-mer SVAQATSSSGEA (human); experiment: peptide ELISA
T1 peptide: SVAQATSSSGEA-biotin
Summary of the method: (§1)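 Nanobodies (FLAG-tagged) or IgG antibodies, 2 μg/mL, incubated 1 h on C-terminally biotinylated peptide captured via streptavidin, washing buffer pH 8.60 containing CaCl₂ and Tween 20. Read-out: HRP-conjugated secondary antibody with TMB colour development.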

[2] = biological target: T2, FX activation peptide 12-mer AQATSSSGEAPD (human); experiment: peptide ELISA
T2 peptide: AQATSSSGEAPD-biotin
Summary of the method: as §1

[3] = biological target: T3, FX activation peptide 12-mer QATSSSGEAPDS (human); experiment: peptide ELISA
T3 peptide: QATSSSGEAPDS-biotin
Summary of the method: as §1

[4] = biological target: T4, FX activation peptide 12-mer ATSSSGEAPDSI (human); experiment: peptide ELISA
T4 peptide: ATSSSGEAPDSI-biotin
Summary of the method: as §1

[5] = biological target: T5, FX activation peptide 12-mer TSSSGEAPDSIT (human); experiment: peptide ELISA
T5 peptide: TSSSGEAPDSIT-biotin
Summary of the method: as §1

[6] = biological target: T6, FX activation peptide 12-mer SSGEAPDSITWK (human); experiment: peptide ELISA
T6 peptide: SSGEAPDSITWK-biotin
Summary of the method: as §1

[7] = biological target: T7, FX activation peptide 12-mer SGEAPDSITWKP (human); experiment: peptide ELISA
T7 peptide: SGEAPDSITWKP-biotin
Summary of the method: as §1

[8] = biological target: T8, FX activation peptide 12-mer EAPDSITWKPYD (human); experiment: peptide ELISA
T8 peptide: EAPDSITWKPYD-biotin
Summary of the method: as §1

[9] = biological target: T9, FX activation peptide 12-mer APDSITWKPYDA (human); experiment: peptide ELISA
T9 peptide: APDSITWKPYDA-biotin
Summary of the method: as §1

[10] = biological target: T10, FX activation peptide 12-mer SITWKPYDAADL (human); experiment: peptide ELISA
T10 peptide: SITWKPYDAADL-biotin
Summary of the method: as §1

[11] = biological target: T11, FX activation peptide 12-mer ITWKPYDAADLD (human); experiment: peptide ELISA
T11 peptide: ITWKPYDAADLD-biotin
Summary of the method: as §1

[12] = biological target: T12, FX activation peptide 12-mer TWKPYDAADLDP (human); experiment: peptide ELISA
T12 peptide: TWKPYDAADLDP-biotin
Summary of the method: as §1

[13] = biological target: T13, FX activation peptide 12-mer WKPYDAADLDPT (human); experiment: peptide ELISA
T13 peptide: WKPYDAADLDPT-biotin
Summary of the method: as §1

[14] = biological target: T14, FX activation peptide 12-mer KPYDAADLDPTE (human); experiment: peptide ELISA
T14 peptide: KPYDAADLDPTE-biotin
Summary of the method: as §1

[15] = biological target: T15, FX activation peptide 12-mer PYDAADLDPTEN (human); experiment: peptide ELISA
T15 peptide: PYDAADLDPTEN-biotin
Summary of the method: as §1

[16] = biological target: T16, FX activation peptide 12-mer YDAADLDPTENP (human); experiment: peptide ELISA
T16 peptide: YDAADLDPTENP-biotin
Summary of the method: as §1

[17] = biological target: T17, FX activation peptide 12-mer DAADLDPTENPF (human); experiment: peptide ELISA
T17 peptide: DAADLDPTENPF-biotin
Summary of the method: as §1

[18] = biological target: T18, FX activation peptide 12-mer ADLDPTENPFDL (human); experiment: peptide ELISA
T18 peptide: ADLDPTENPFDL-biotin
Summary of the method: as §1

[19] = biological target: T19, FX activation peptide 12-mer DLDPTENPFDLL (human); experiment: peptide ELISA
T19 peptide: DLDPTENPFDLL-biotin
Summary of the method: as §1

[20] = biological target: T20, FX activation peptide 12-mer LDPTENPFDLLD (human); experiment: peptide ELISA
T20 peptide: LDPTENPFDLLD-biotin
Summary of the method: as §1

[21] = biological target: T21, FX activation peptide 12-mer TENPFDLLDFNQ (human); experiment: peptide ELISA
T21 peptide: TENPFDLLDFNQ-biotin
Summary of the method: as §1

[22] = biological target: T22, FX activation peptide 12-mer ENPFDLLDFNQT (human); experiment: peptide ELISA
T22 peptide: ENPFDLLDFNQT-biotin
Summary of the method: as §1

[23] = biological target: T23, FX activation peptide 12-mer NPFDLLDFNQTQ (human); experiment: peptide ELISA
T23 peptide: NPFDLLDFNQTQ-biotin
Summary of the method: as §1

[24] = biological target: T24, FX activation peptide 12-mer FDLLDFNQTQPE (human); experiment: peptide ELISA
T24 peptide: FDLLDFNQTQPE-biotin
Summary of the method: as §1

[25] = biological target: T25, FX activation peptide 12-mer DLLDFNQTQPER (human); experiment: peptide ELISA
T25 peptide: DLLDFNQTQPER-biotin
Summary of the method: as §1

[26] = biological target: T26, FX activation peptide 12-mer LLDFNQTQPERG (human); experiment: peptide ELISA
T26 peptide: LLDFNQTQPERG-biotin
Summary of the method: as §1

[27] = biological target: T27, FX activation peptide 12-mer LDFNQTQPERGD (human); experiment: peptide ELISA
T27 peptide: LDFNQTQPERGD-biotin
Summary of the method: as §1

[28] = biological target: T28, FX activation peptide 12-mer DFNQTQPERGDN (human); experiment: peptide ELISA
T28 peptide: DFNQTQPERGDN-biotin
Summary of the method: as §1

[29] = biological target: T29, FX activation peptide 12-mer FNQTQPERGDNN (human); experiment: peptide ELISA
T29 peptide: FNQTQPERGDNN-biotin
Summary of the method: as §1

[30] = biological target: T30, FX activation peptide 12-mer QTQPERGDNNLT (human); experiment: peptide ELISA
T30 peptide: QTQPERGDNNLT-biotin
Summary of the method: as §1

[31] = biological target: T31, FX activation peptide 12-mer TQPERGDNNLTR (human); experiment: peptide ELISA
T31 peptide: TQPERGDNNLTR-biotin
Summary of the method: as §1

[32] = biological target: human plasma-derived Factor X zymogen (human, UniProt P00742 41-179; P00742 183-488); experiment: cell-based or functional assay
human plasma-derived Factor X zymogen, sequence (P00742 41-179, chain 1 of 2): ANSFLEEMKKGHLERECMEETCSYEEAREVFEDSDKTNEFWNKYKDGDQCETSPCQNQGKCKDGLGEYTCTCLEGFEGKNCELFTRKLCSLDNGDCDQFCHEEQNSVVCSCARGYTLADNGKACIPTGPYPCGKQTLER
human plasma-derived Factor X zymogen, sequence (P00742 183-488, chain 2 of 2): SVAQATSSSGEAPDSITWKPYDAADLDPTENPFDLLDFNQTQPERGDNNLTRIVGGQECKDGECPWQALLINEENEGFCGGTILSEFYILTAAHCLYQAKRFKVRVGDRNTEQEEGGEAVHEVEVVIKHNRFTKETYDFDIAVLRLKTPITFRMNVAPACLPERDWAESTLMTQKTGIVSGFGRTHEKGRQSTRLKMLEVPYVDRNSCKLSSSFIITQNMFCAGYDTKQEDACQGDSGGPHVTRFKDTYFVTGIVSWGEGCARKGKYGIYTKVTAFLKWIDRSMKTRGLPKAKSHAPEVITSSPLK

B1: Nb 501A02 (VHH)
VHH: EVQLVESGGGLVQPGGSLRLSCAASGFTFSNYEMSWVRQAPGKGLEWVSDIGSGGGVSTYYADSVKGRFTISRDNAKNTLYLQMNSLKPEDTAMYYCARGWTYGSDGMDYWGKGTLVTVSS
notes: monovalent control Nanobody; also called control Nanobody; not shown: C-terminal FLAG3 and HIS6 tag
For B1, the “ELISA signal relative to background” value [1] was 0.74, the binding result [1] was “no binding (tested: 2 µg/mL)” and the “ELISA signal relative to background” value [2] was 0.79. The binding result [2] was “no binding (tested: 2 µg/mL)”, the “ELISA signal relative to background” value [3] was 0.82 and the binding result [3] was “no binding (tested: 2 µg/mL)”. The “ELISA signal relative to background” value [4] was 0.82, the binding result [4] was “no binding (tested: 2 µg/mL)” and the “ELISA signal relative to background” value [5] was 0.76. The binding result [5] was “no binding (tested: 2 µg/mL)”, the “ELISA signal relative to background” value [6] was 0.71 and the binding result [6] was “no binding (tested: 2 µg/mL)”. The “ELISA signal relative to background” value [7] was 0.76, the binding result [7] was “no binding (tested: 2 µg/mL)” and the “ELISA signal relative to background” value [8] was 0.76. For the same binder, the binding result [8] was “no binding (tested: 2 µg/mL)”, the “ELISA signal relative to background” value [9] was 0.74 and the binding result [9] was “no binding (tested: 2 µg/mL)”. For the same binder, the “ELISA signal relative to background” value [10] was 0.71, the binding result [10] was “no binding (tested: 2 µg/mL)” and the “ELISA signal relative to background” value [11] was 0.74. For the same binder, the binding result [11] was “no binding (tested: 2 µg/mL)”, the “ELISA signal relative to background” value [12] was 0.74 and the binding result [12] was “no binding (tested: 2 µg/mL)”. For the same binder, the “ELISA signal relative to background” value [13] was 0.74, the binding result [13] was “no binding (tested: 2 µg/mL)” and the “ELISA signal relative to background” value [14] was 0.82. The binding result [14] was “no binding (tested: 2 µg/mL)”, the “ELISA signal relative to background” value [15] was 0.79 and the binding result [15] was “no binding (tested: 2 µg/mL)”. For the same binder, the “ELISA signal relative to background” value [16] was 0.71, the binding result [16] was “no binding (tested: 2 µg/mL)” and the “ELISA signal relative to background” value [17] was 0.88. For the same binder, the binding result [17] was “no binding (tested: 2 µg/mL)”, the “ELISA signal relative to background” value [18] was 0.71 and the binding result [18] was “no binding (tested: 2 µg/mL)”. For the same binder, the “ELISA signal relative to background” value [19] was 0.79, the binding result [19] was “no binding (tested: 2 µg/mL)” and the “ELISA signal relative to background” value [20] was 0.91. The binding result [20] was “no binding (tested: 2 µg/mL)”, the “ELISA signal relative to background” value [21] was 1.09 and the binding result [21] was “no binding (tested: 2 µg/mL)”. For the same binder, the “ELISA signal relative to background” value [22] was 0.82, the binding result [22] was “no binding (tested: 2 µg/mL)” and the “ELISA signal relative to background” value [23] was 0.94. The binding result [23] was “no binding (tested: 2 µg/mL)”, the “ELISA signal relative to background” value [24] was 0.85 and the binding result [24] was “no binding (tested: 2 µg/mL)”. For the same binder, the “ELISA signal relative to background” value [25] was 0.76, the binding result [25] was “no binding (tested: 2 µg/mL)” and the “ELISA signal relative to background” value [26] was 0.79. The binding result [26] was “no binding (tested: 2 µg/mL)”, the “ELISA signal relative to background” value [27] was 0.74 and the binding result [27] was “no binding (tested: 2 µg/mL)”. The “ELISA signal relative to background” value [28] was 0.71, the binding result [28] was “no binding (tested: 2 µg/mL)” and the “ELISA signal relative to background” value [29] was 0.71. The binding result [29] was “no binding (tested: 2 µg/mL)”, the “ELISA signal relative to background” value [30] was 0.76 and the binding result [30] was “no binding (tested: 2 µg/mL)”. The “ELISA signal relative to background” value [31] was 0.85, the binding result [31] was “no binding (tested: 2 µg/mL)” and the “Increase in FX activation (fold)” value [32] was 0.8 fold.

B2: Nb 730C03 (VHH)
VHH: EVQLVESGGGVVQPGGSLRLSCVASGFTFSDYAMSWVRQAPGKGLEWVSGITSGSGRTYYADSVKGRFTISRDNSKNTVYLQMNSLRPEDTALYYCAAAILRGYRKTYDYWGQGTLVTVSS
notes: monovalent Nanobody; also called Nb 730003; not shown: C-terminal FLAG3 and HIS6 tag
In the case of B2, the “ELISA signal relative to background” value [1] is reported as 1.21, the “ELISA signal relative to background” value [2] is reported as 1.19 and the “ELISA signal relative to background” value [3] is reported as 1.14. For the same binder, the “ELISA signal relative to background” value [4] was 1.19, the “ELISA signal relative to background” value [5] was 1.2 and the “ELISA signal relative to background” value [6] was 1.22. For the same binder, the “ELISA signal relative to background” value [7] was 1.18, the “ELISA signal relative to background” value [8] was 1.24 and the “ELISA signal relative to background” value [9] was 1.16. For the same binder, the “ELISA signal relative to background” value [10] was 1.18, the “ELISA signal relative to background” value [11] was 1.2 and the “ELISA signal relative to background” value [12] was 1.26. For the same binder, the “ELISA signal relative to background” value [13] was 1.14, the “ELISA signal relative to background” value [14] was 1.17 and the “ELISA signal relative to background” value [15] was 1.2. The “ELISA signal relative to background” value [16] was 1.28, the “ELISA signal relative to background” value [17] was 1.24 and the “ELISA signal relative to background” value [18] was 1.25. For the same binder, the “ELISA signal relative to background” value [19] was 1.26, the “ELISA signal relative to background” value [20] was 1.3 and the “ELISA signal relative to background” value [21] was 2.1. The “ELISA signal relative to background” value [22] was 6.57, the “ELISA signal relative to background” value [23] was 2.82 and the “ELISA signal relative to background” value [24] was 1.28. The “ELISA signal relative to background” value [25] was 1.18, the “ELISA signal relative to background” value [26] was 1.1 and the “ELISA signal relative to background” value [27] was 1.14. The “ELISA signal relative to background” value [28] was 1.16, the “ELISA signal relative to background” value [29] was 1.16 and the “ELISA signal relative to background” value [30] was 1.1. For the same binder, the “ELISA signal relative to background” value [31] was 1.06 and the “Increase in FX activation (fold)” value [32] was 9.2 fold.
